The values that follow come from article PMC5777261 (The Journal of Biological Chemistry, 2017).

Usually IC50 stands for the concentration at which inhibition is half-maximal.

Holding throughout (test): radioligand binding; HEK293 cells expressing ACKR3-YFP or mutants, pretreated 5 min at 37 °C with 100 μM phenylarsine oxide; 50 pM 125I-CXCL12 tracer in 50 mM HEPES pH 7.4, 5 mM MgCl2, 1 mM CaCl2, 0.2% BSA, with or without unlabeled CXCL12 or CXCL11, 30 min at 37 °C; bound label counted in a γ counter; IC50 taken as proxy for ligand affinity
Assay [1] deals with ACKR3 D90N-YFP (UniProt P25106).
Chain of ACKR3 D90N-YFP (P25106 whole entry D90N): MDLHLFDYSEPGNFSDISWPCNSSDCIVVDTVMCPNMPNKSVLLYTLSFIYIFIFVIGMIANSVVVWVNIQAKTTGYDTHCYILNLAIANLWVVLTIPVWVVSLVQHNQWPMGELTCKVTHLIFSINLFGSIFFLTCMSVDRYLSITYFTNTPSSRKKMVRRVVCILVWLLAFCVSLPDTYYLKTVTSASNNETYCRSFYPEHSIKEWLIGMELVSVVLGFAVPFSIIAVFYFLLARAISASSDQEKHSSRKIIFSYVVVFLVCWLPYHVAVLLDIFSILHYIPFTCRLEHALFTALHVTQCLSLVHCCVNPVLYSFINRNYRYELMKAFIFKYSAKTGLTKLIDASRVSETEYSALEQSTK
The target in assay [2] is ACKR3 N127K-YFP (UniProt P25106).
Chain of ACKR3 N127K-YFP (P25106 whole entry N127K): as the sequence (P25106 whole entry D90N) above, with N90D, N127K counted along it
The target in assay [3] is ACKR3 N127S-YFP (UniProt P25106).
Chain of ACKR3 N127S-YFP (P25106 whole entry N127S): as the sequence (P25106 whole entry D90N) above, with N90D, N127S counted along it
Assay [4] deals with ACKR3 N127D-YFP (UniProt P25106).
Chain of ACKR3 N127D-YFP (P25106 whole entry N127D): as the sequence (P25106 whole entry D90N) above, with N90D, N127D counted along it
Assay [5] has as its target ACKR3 Y143A-YFP (UniProt P25106).
In assay [6] the target is ACKR3 R142A-YFP (UniProt P25106).
Chain of ACKR3 R142A-YFP (P25106 whole entry R142A, the tested form may be a part): as the sequence (P25106 whole entry D90N) above, with N90D, R142A counted along it
Assay [7] has as its target ACKR3-YFP (wildtype ACKR3 fused C-terminally to YFP) (UniProt P25106).
For assay [8], the target named is ACKR3 D141N-YFP (UniProt P25106).
Chain of ACKR3 D141N-YFP (P25106 whole entry D141N): as the sequence (P25106 whole entry D90N) above, with N90D, D141N counted along it
The target in assay [9] is ACKR3 Y315A-YFP (UniProt P25106).
Chain of ACKR3 Y315A-YFP (P25106 whole entry Y315A): as the sequence (P25106 whole entry D90N) above, with N90D, Y315A counted along it

Chain of ACKR3-YFP (wildtype ACKR3 fused C-terminally to YFP) (P25106 whole entry, the tested form may be a part): as the sequence (P25106 whole entry D90N) above, with N90D counted along it
Chain of ACKR3 Y143A-YFP (P25106 whole entry Y143A): as the sequence (P25106 whole entry D90N) above, with N90D, Y143A counted along it
Chain of ^125I-CXCL12 radiolabel tracer (P48061 22-93): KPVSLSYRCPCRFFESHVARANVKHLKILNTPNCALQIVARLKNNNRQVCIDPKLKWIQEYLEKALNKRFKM
Chain of CXCL12 (unlabeled recombinant chemokine) (P48061 22-93): as above

“CXCL12 (unlabeled recombinant chemokine) (from UniProt P48061 22-93) (ligand)”: the 50% inhibitory concentration (IC50) turned out to be 12.1 nM in assay [1]; 9.9 nM in assay [2]; 1.7 nM in [3]; 10.9 nM in assay [4]; 3 nM in assay [5]; 45.1 nM in [6]. In addition, the 50% inhibitory concentration (IC50) turned out to be 5.9 nM in [7] and 24.7 nM in assay [9]. The Log IC50 in assay [1] is -7.9; in assay [2], -8.1; in assay [3], -8.8; in assay [4] it was -8.2; in assay [5], -8.5; in assay [6] it was -7.4. For the same substance, the Log IC50 in assay [7] was -8.2; in [8], -9.1; in [9] it was -7.7.

Turning to “^125I-CXCL12 radiolabel tracer (from UniProt P48061 22-93) (ligand)”, the 125I-CXCL12 tracer binding, % of ACKR3 (the pair that is blocked) in assay [1] was 92%; in assay [2], 83%; in [3], 87%; in assay [4], 70%; in assay [5] it was 93%; in assay [6], 66%. Further, the 125I-CXCL12 tracer binding, % of ACKR3 (the pair that is blocked) was determined as 100% in assay [7], 64% in assay [8] and 69% in assay [9].
